Consider 94 variants from the supplement of paper PMC10567573.

To fix the notation:
B1: RHOBTB2 (parent)
chain: LYTGELDENERDLMHIAHIAELLE
B2: SAT2 (parent)
chain: GYGIYYFIYSTWKGRTIYLEDIYV
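Also: lentivirally expressed fusions sorted by FACS into six bins by GFP to DsRed ratio, PSI derived from sequencing read proportions per bin multiplied by bin number.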

In one data set the parent is B1. The data set is described as follows: protein stability index of a GFP-peptide fusion (GPS, HEK-293T) (PSI 1-6); higher = more stable. As to conditions: c terminus: a fixed tail appended.
With LYTGELRENERDLMHIAHIAELLE [D7R], the protein stability index is 2.25.
The same measure, in the same setting: for LYTGELNENERDLMHIAHIAELLE [D7N] the value was 2.17.
Regarding LYTGELCENERDLMHIAHIAELLE [D7C], the protein stability index stood at 1.88.
On the same count and under the same terms, for LYTGELYENERDLMHIAHIAELLE [D7Y] the value was 1.89; for LYTGEADENERDLMHIAHIAELLE [L6A], 3.38; for LYTGELDENERDKMHIAHIAELLE [L13K], 3.1.
Still for that read-out and setting: for LYTGELDENERDFMHIAHIAELLE [L13F] the value was 3.13; for LYTGELDENERDEMHIAHIAELLE [L13E], 3.44.
Still for that read-out and setting: for LYTGELDENERDLMHIAHIAELLL [E24L] the value was 2.18.
LYTGELDENERDLMHIAHIAELLN [E24N]: the protein stability index was 2.42.
Still for that read-out and setting: for LYTGELDENERDLMHIAHIAEELE [L22E] the value was 4.08; for LYTGELDENERDLMEIAHIAELLE [H15E], 2.76; for LYTGELDENERDLMHIARIAELLE [H18R], 2.38.
LYTGELDENERDLMHIANIAELLE [H18N]: the protein stability index is 3.47.
Same read-out and setting: in the case of LYTGELDERERDLMHIAHIAELLE [N9R] it was 2.79; in that of LYTGELDENPRDLMHIAHIAELLE [E10P], 1.88.
Same read-out and setting: in the case of LYTGELDENEKDLMHIAHIAELLE [R11K] it was 2.77.
The same measure, in the same setting: for LITGELDENERDLMHIAHIAELLE [Y2I] the value was 2.54.
In the case of LYTGELDENERDLMHIAHIAALLE [E21A], the protein stability index worked out at 1.72.
On the same count and under the same terms, in the case of LYTGELDENERDLMHIAHIATLLE [E21T] it was 1.75; in that of LYTGELDENERDLMHIAHLAELLE [I19L], 2.31; in that of LYTGELDENERDLMHIAHRAELLE [I19R], 4.17.
The same measure, in the same setting: in the case of LYTGELDENERDLMHIAHILELLE [A20L] it was 1.61.
For LYTGELDENERDLMHIAHIYELLE [A20Y], the protein stability index came out at 2.53.
LYTGNLDENERDLMHIAHIAELLE [E5N]: the protein stability index turned out to be 2.23.
For LYTGWLDENERDLMHIAHIAELLE [E5W], the protein stability index came to 2.3.
Same read-out and setting: in the case of LYTGHLDENERDLMHIAHIAELLE [E5H] it was 2.24; in that of LYTGELDQNERDLMHIAHIAELLE [E8Q], 2.85.
On the same count and under the same terms, for LYTGELDENERDLMHIAHIAELDE [L23D] the value was 4.28; for LYTGELDENERDLMHAAHIAELLE [I16A], 4.07; for LYTGELDENERDLMHGAHIAELLE [I16G], 4.06.
Still for that read-out and setting: for LYTGELDENERDLMHWAHIAELLE [I16W] the value was 3.16; for LYTGELDENERDLMHILHIAELLE [A17L], 1.45.
For the variant LYTGELDENERDLMHINHIAELLE [A17N], the protein stability index was determined as 2.92.
Regarding LYTGELDENERMLMHIAHIAELLE [D12M], the protein stability index came to 2.95.
Same read-out and setting: in the case of LYTGELDENERSLMHIAHIAELLE [D12S] it was 2.56; in that of LYMGELDENERDLMHIAHIAELLE [T3M], 2.23.
Still for that read-out and setting: for NYTGELDENERDLMHIAHIAELLE [L1N] the value was 2.8; for KYTGELDENERDLMHIAHIAELLE [L1K], 2.49; for LYTGELDENERDLDHIAHIAELLE [M14D], 3.41.
Turning to LYTGELDENERDLWHIAHIAELLE [M14W], the protein stability index was 1.82.
As to LYTGELDENERDLVHIAHIAELLE [M14V], the protein stability index amounted to 2.16.
As to LYTGELDENERDLSHIAHIAELLE [M14S], the protein stability index is 3.8.

In a further data set the parent is B2. The data set is described as above. As to conditions: c terminus: a fixed tail appended.
In the case of GYGIYYFIYSTCKGRTIYLEDIYV [W12C], the protein stability index was 2.1.
Still for that read-out and setting: for GYHIYYFIYSTWKGRTIYLEDIYV [G3H] the value was 2.85.
Same read-out and setting: in the case of GYIIYYFIYSTWKGRTIYLEDIYV [G3I] it was 1.59.
Regarding GYGIYYFIYPTWKGRTIYLEDIYV [S10P], the protein stability index worked out at 3.17.
On the same count and under the same terms, in the case of GYGIYYFIYYTWKGRTIYLEDIYV [S10Y] it was 2.76; in that of GYGIYYFIYSTWKGRTYYLEDIYV [I17Y], 2.1.
As for GYGIYYFIYSTWKGRTDYLEDIYV [I17D], the protein stability index amounted to 3.35.
The same measure, in the same setting: for RYGIYYFIYSTWKGRTIYLEDIYV [G1R] the value was 2.21; for EYGIYYFIYSTWKGRTIYLEDIYV [G1E], 2.96; for GYGIYYFIYSTWKGRTIYLEHIYV [D21H], 2.67.
As for GYGIYYFIYSTWKGRTIYLECIYV [D21C], the protein stability index was found to be 2.34.
For GYGIYYFIYSTWKGRTIYLEKIYV [D21K], the protein stability index came to 4.17.
As for GYGIYYFIYSYWKGRTIYLEDIYV [T11Y], the protein stability index stood at 2.83.
On the same count and under the same terms, for GYGIYYFIYSAWKGRTIYLEDIYV [T11A] the value was 2.97.
As for GYGIYYFIYSWWKGRTIYLEDIYV [T11W], the protein stability index was determined as 3.78.
On the same count and under the same terms, for GYGIYYFFYSTWKGRTIYLEDIYV [I8F] the value was 3.4.
On the same count and under the same terms, in the case of GYGIYYFLYSTWKGRTIYLEDIYV [I8L] it was 2.2.
In the case of GYGIYYFTYSTWKGRTIYLEDIYV [I8T], the protein stability index was 4.7.
For GYGIYYFVYSTWKGRTIYLEDIYV [I8V], the protein stability index came to 2.02.
Regarding GYGIYYFIYSTWKGRTIYIEDIYV [L19I], the protein stability index is 4.11.
Still for that read-out and setting: in the case of GYGIYYFIYSTWKGTTIYLEDIYV [R15T] it was 3.03; in that of GYGKYYFIYSTWKGRTIYLEDIYV [I4K], 2.7.
Still for that read-out and setting: for GYGIYYWIYSTWKGRTIYLEDIYV [F7W] the value was 2.65; for GYGIYYGIYSTWKGRTIYLEDIYV [F7G], 3.36.
Still for that read-out and setting: in the case of GYGIYYFIYSTWKHRTIYLEDIYV [G14H] it was 4.09; in that of GYGIYYFIYSTWKVRTIYLEDIYV [G14V], 5.04; in that of GYGIYYFIYSTWKPRTIYLEDIYV [G14P], 2.33.
With GYGIYYFIYSTWKGRTIYLCDIYV [E20C], the protein stability index turned out to be 3.04.
Turning to GYGIYYFIYSTWKGRTIYLFDIYV [E20F], the protein stability index was found to be 2.84.
Same read-out and setting: for GYGIYYFIYSTWKGRTIYLEDIYR [V24R] the value was 2.39.
Regarding GYGIYYFIYSTWKGRTIYLEDIYC [V24C], the protein stability index stood at 3.63.
Same read-out and setting: for GYGIYYFIYSTWKGRTIYLEDIYY [V24Y] the value was 2.53; for GYGIYYFIYSTWHGRTIYLEDIYV [K13H], 2.87; for GYGIYYFIYSTWTGRTIYLEDIYV [K13T], 2.87.
On to GYGIYYFIYSTWIGRTIYLEDIYV [K13I], for which the protein stability index was 2.8.
On the same count and under the same terms, for GYGIYYFIYSTWGGRTIYLEDIYV [K13G] the value was 2.94; for GYGIYYFIYSTWSGRTIYLEDIYV [K13S], 2.39; for GCGIYYFIYSTWKGRTIYLEDIYV [Y2C], 2.61.
On the same count and under the same terms, for GWGIYYFIYSTWKGRTIYLEDIYV [Y2W] the value was 2.38.
Still for that read-out and setting: for GQGIYYFIYSTWKGRTIYLEDIYV [Y2Q] the value was 4.95; for GDGIYYFIYSTWKGRTIYLEDIYV [Y2D], 2.06; for GRGIYYFIYSTWKGRTIYLEDIYV [Y2R], 2.58.
As for GYGIYYFIYSTWKGRTIHLEDIYV [Y18H], the protein stability index came out at 2.59.
Same read-out and setting: for GYGIYYFIYSTWKGRTIYLEDYYV [I22Y] the value was 2.09; for GYGIYYFIYSTWKGRFIYLEDIYV [T16F], 3.53.
Still for that read-out and setting: in the case of GYGIYYFIYSTWKGRVIYLEDIYV [T16V] it was 3.24; in that of GYGIYYFIYSTWKGRMIYLEDIYV [T16M], 3.12; in that of GYGIYYFIPSTWKGRTIYLEDIYV [Y9P], 2.71.
Still for that read-out and setting: for GYGIYYFIISTWKGRTIYLEDIYV [Y9I] the value was 1.62; for GYGIYYFIRSTWKGRTIYLEDIYV [Y9R], 3.86; for GYGIYYFIYSTWKGRTIYLEDIPV [Y23P], 2.43.
